T1: CD123 (Homo sapiens (Human), UniProt P26951 19-305, limits assumed)
T1 sequence: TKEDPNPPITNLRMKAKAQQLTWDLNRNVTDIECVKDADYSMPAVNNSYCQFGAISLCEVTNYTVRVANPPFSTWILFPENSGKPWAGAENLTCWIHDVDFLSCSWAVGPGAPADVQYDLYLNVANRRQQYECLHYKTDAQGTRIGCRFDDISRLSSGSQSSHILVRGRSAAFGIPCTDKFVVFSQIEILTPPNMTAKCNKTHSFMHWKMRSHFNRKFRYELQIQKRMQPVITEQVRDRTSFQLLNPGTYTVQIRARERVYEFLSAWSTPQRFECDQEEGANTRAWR


Tests used:
[1] = target: control (IgG Fc); assay: phage ELISA, 89 identical clones, control wells
[2] = target: control (IgG Fc); assay: phage ELISA, control wells, lower end of the distribution
[3] = target: control (IgG Fc); assay: phage ELISA, control wells, upper end of the distribution
[4] = target: T1, CD123; assay: library selection; assay not told

Binder | ELISA absorbance [1] | ELISA absorbance [2] | ELISA absorbance [3] | binding result [4]
bb10 (designed binder) MGSWAEFKQRLAAIKTRLEALGGSEAELAAFLGEIWAFEMELAAYKGKGNPEVEALGREAAAIRMELQAYRHN | 0.067 OD | 0.056 OD | 0.125 OD | –
SEQ ID NO 101 (designed binder, DBDpp, library F3) MGSWTEFDRRLDAIWDRLFALGGSEAELAAFEKEIAAFESELQAYKGKGNPEVEWLREEAADIRDYLQAYRHN | – | – | – | binds
SEQ ID NO 102 (designed binder, DBDpp, library F3) MGSWTEFDRRLDAIWDRLFALGGSEAELAAFEKEIAAFESELQAYKGKGNPEVEWLREEAADIRDYLQAYRHN | – | – | – | binds
SEQ ID NO 114 (designed binder, DBDpp, library F3) MGSWTEFDRRLDAIWDRLFALGGSEAELAAFEKEIAAFESELQAYKGKGNPEVEWLREEAADIRDYLQAYRHN | – | – | – | binds
